Results: IntAct's records for PubMed 25873389

B1: Protein deacetylase HDAC6 (Homo sapiens), Q9UBN7 (parent)
chain: MTSTGQDSTTTRQRRSRQNPQSPPQDSSVTSKRNIKKGAVPRSIPNLAEVKKKGKMKKLGQAMEEDLIVGLQGMDLNLEAEALAGTGLVLDEQLNEFHCLWDDSFPEGPERLHAIKEQLIQEGLLDRCVSFQARFAEKEELMLVHSLEYIDLMETTQYMNEGELRVLADTYDSVYLHPNSYSCACLASGSVLRLVDAVLGAEIRNGMAIIRPPGHHAQHSLMDGYCMFNHVAVAARYAQQKHRIRRVLIVDWDVHHGQGTQFTFDQDPSVLYFSIHRYEQGRFWPHLKASNWSTTGFGQGQGYTINVPWNQVGMRDADYIAAFLHVLLPVALEFQPQLVLVAAGFDALQGDPKGEMAATPAGFAQLTHLLMGLAGGKLILSLEGGYNLRALAEGVSASLHTLLGDPCPMLESPGAPCRSAQASVSCALEALEPFWEVLVRSTETVERDNMEEDNVEESEEEGPWEPPVLPILTWPVLQSRTGLVYDQNMMNHCNLWDSHHPEVPQRILRIMCRLEELGLAGRCLTLTPRPATEAELLTCHSAEYVGHLRATEKMKTRELHRESSNFDSIYICPSTFACAQLATGAACRLVEAVLSGEVLNGAAVVRPPGHHAEQDAACGFCFFNSVAVAARHAQTISGHALRILIVDWDVHHGNGTQHMFEDDPSVLYVSLHRYDHGTFFPMGDEGASSQIGRAAGTGFTVNVAWNGPRMGDADYLAAWHRLVLPIAYEFNPELVLVSAGFDAARGDPLGGCQVSPEGYAHLTHLLMGLASGRIILILEGGYNLTSISESMAACTRSLLGDPPPLLTLPRPPLSGALASITETIQVHRRYWRSLRVMKVEDREGPSSSKLVTKKAPQPAKPRLAERMTTREKKVLEAGMGKVTSASFGEESTPGQTNSETAVVALTQDQPSEAATGGATLAQTISEAAIGGAMLGQTTSEEAVGGATPDQTTSEETVGGAILDQTTSEDAVGGATLGQTTSEEAVGGATLAQTTSEAAMEGATLDQTTSEEAPGGTELIQTPLASSTDHQTPPTSPVQGTTPQISPSTLIGSLRTLELGSESQGASESQAPGEENLLGEAAGGQDMADSMLMQGSRGLTDQAIFYAVTPLPWCPHLVAVCPIPAAGLDVTQPCGDCGTIQENWVCLSCYQVYCGRYINGHMLQHHGNSGHPLVLSYIDLSAWCYYCQAYVHHQALLDVKNIAHQNKFGEDMPHPH

Variants of: B1
Conditions: with hdac9_mouse Hdac9, Q99N13
Chain of hdac9_mouse Hdac9, Q99N13 (Q99N13 whole entry): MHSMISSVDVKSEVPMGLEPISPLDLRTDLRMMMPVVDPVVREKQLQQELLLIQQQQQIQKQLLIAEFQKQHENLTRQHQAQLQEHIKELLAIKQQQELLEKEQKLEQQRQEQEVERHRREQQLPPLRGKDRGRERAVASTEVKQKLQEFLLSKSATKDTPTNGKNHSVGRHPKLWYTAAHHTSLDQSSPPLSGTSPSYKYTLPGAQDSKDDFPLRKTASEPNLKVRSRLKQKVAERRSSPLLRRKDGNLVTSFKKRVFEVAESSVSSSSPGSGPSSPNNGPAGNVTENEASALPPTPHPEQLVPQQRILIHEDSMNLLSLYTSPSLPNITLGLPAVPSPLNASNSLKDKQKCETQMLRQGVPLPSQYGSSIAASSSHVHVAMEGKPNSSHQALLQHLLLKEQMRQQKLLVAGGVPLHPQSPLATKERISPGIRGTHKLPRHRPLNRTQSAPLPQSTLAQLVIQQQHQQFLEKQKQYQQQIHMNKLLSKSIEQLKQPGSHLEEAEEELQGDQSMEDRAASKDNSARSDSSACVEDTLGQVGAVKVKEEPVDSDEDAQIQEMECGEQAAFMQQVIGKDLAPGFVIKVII

Q: How did the “effect of a mutation on the interaction” value turn out when H216A was run?
A: decreasing interaction strength

Q: With H611A as the variant, how does the “effect of a mutation on the interaction” value read?
A: decreasing interaction strength

Q: With H216A;H611A as the variant, how does the “effect of a mutation on the interaction” value read?
A: disrupting interaction strength
